Experimental data published in patent US9931415B2, “Pyrrolobenzodiazepine-antibody conjugates” (ADC THERAPEUTICS S.A., priority 2012, dated 2018).

Key:
CD25 on Karpas299 cells = biological target: T1, CD25 on Karpas299 cells (Homo sapiens, UniProt P01589); test: Binding of HuMax-TAC to CD25 +ve cell lines by flow cytometry (Karpas299)
T1 construct: Surface CD25 expression on Karpas and SU-DHL-1 was determined by flow cytometry; endogenous in cells; host or cells: Karpas299 and SU-DHL-1 cell lines
T1 sequence (P01589 22-272): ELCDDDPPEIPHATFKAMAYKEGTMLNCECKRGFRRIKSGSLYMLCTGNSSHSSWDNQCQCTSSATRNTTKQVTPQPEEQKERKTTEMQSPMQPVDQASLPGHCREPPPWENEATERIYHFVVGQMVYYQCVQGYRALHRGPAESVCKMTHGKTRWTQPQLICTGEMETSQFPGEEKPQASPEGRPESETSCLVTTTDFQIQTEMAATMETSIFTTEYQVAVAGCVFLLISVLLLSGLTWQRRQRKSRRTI
Method: (§1) Karpas299 and SU-DHL-1 anaplastic large cell lymphoma (ALCL)-derived cell lines have been previously reported to express CD25 (2,3). To confirm their expression profile, CD25 surface expression was analyzed by flow cytometry. HuMax-TAC was used as a CD25-specific antibody. B12 was used as a negative control antibody.
(§2) Surface CD25 expression on Karpas and SU-DHL-1 was determined by flow cytometry. Graphs represent the average of three (Karpas299) or four independent experiments (SU-DHL-1). EC50 values are reported in ng/ml.

CD25 on SU-DHL-1 cells = biological target: T2, CD25 on SU-DHL-1 cells (Homo sapiens, UniProt P01589); test: Binding of HuMax-TAC to CD25 +ve cell lines by flow cytometry (SU-DHL-1)
T2 construct: endogenous in cells; host or cells: Karpas299 and SU-DHL-1 cell lines
T2 sequence (P01589 22-272): T1 sequence (P01589 22-272)
Method: as §1, §2

## HuMax-TAC: anti-CD25 antibody comprising a VH domain of SEQ ID NO. 1 and a VL domain of SEQ ID NO. 2
CD25 on Karpas299 cells
  binding to cell surface CD25 (flow cytometry): specifically bound
CD25 on Karpas299 cells; flow cytometry, average of three experiments
  EC50: 0.02021 µg/mL
CD25 on SU-DHL-1 cells
  binding to cell surface CD25 (flow cytometry): specifically bound
CD25 on SU-DHL-1 cells; flow cytometry, average of four experiments
  EC50: 0.03406 µg/mL
